Source: US8283180B2, “Periodic acid-schiff staining with detection in the infrared range” (Amicus Therapeutics, Inc., priority 2007, dated 2012)

Tested on: PM-12 cells
Assay: PAS staining of Pompe fibroblasts with IR fluorescence detection after diastase digestion
Type: cell-based, human
Conditions: 20,000 cells/well; 0.1% diastase, 5 to 60 minutes; detection at 800 nm; FIG. 2
Method: PM-11 Pompe fibroblasts were obtained from Dr. W. J. Kleijer, Department of Cell Biology & Genetics, Erasmus University, The Netherlands. PM-12 Pompe fibroblasts were purchased from Coriell (catalog #GM03329). CRL-2076 fibroblasts (negative control) were purchased from American Type Culture Collection (Manassas, Va.). All fibroblast lines were routinely cultured at 37° C., 5% CO2, in growth medium consisting of Dulbecco's Modified […] Medium containing 15% fetal bovine serum (Hyclone, Logan, Utah), 100 U/mL penicillin; 100 μg/mL streptomycin, and 2 mM L-glutamine.
Prior to the assay, borosilicate coverslip glass bottom 96-well black plates (Nunc; catalog #164588) are coated with superfibronectin (Sigma). […] Briefly, 100 μL of 5 μg/mL superfibronectin (Sigma) is pipetted into each well and the plate is incubated at 37° C. for 2 hours. […]
Following the overnight incubation, the plate is read on a laser-based Odyssey IR scanner (Li-Cor, Inc.) at emission wavelengths of 700 nm (near-IR) or 800 nm (IR). The detector counts IR and near-IR fluorescence emissions independently or simultaneously from the samples, and reports these counts as arbitrary units. The detector scans across an entire microtiter plate, thus can read two fluorophores from any microtiter formatted sample array (96-well, 384-well, or other) within a few minutes. […]

B1: diastase: α-amylase type VI-B from porcine pancreas; breaks down glycogen, used as negative control for PAS staining (protein, UniProt P00690 16-511, looked up)
Pancreatic alpha-amylase: QYAPQTQSGRTSIVHLFEWRWVDIALECERYLGPKGFGGVQVSPPNENIVVTNPSRPWWERYQPVSYKLCTRSGNENEFRDMVTRCNNVGVRIYVDAVINHMCGSGAAAGTGTTCGSYCNPGNREFPAVPYSAWDFNDGKCKTASGGIESYNDPYQVRDCQLVGLLDLALEKDYVRSMIADYLNKLIDIGVAGFRIDASKHMWPGDIKAVLDKLHNLNTNWFPAGSRPFIFQEVIDLGGEAIQSSEYFGNGRVTEFKYGAKLGTVVRKWSGEKMSYLKNWGEGWGFMPSDRALVFVDNHDNQRGHGAGGASILTFWDARLYKVAVGFMLAHPYGFTRVMSSYRWARNFVNGQDVNDWIGPPNNNGVIKEVTINADTTCGNDWVCEHRWRQIRNMVWFRNVVDGQPFANWWANGSNQVAFGRGNRGFIVFNNDDWQLSSTLQTGLPGGTYCDVISGDKVGNSCTGIKVYVSSDGTAQFSISNSAEDPFIAIHAESKL
time-dependent decrease in PAS stain IR fluorescence signal: about 2 fold
